Data taken from US20210275641A1 (SYNTHEKINE, published 2021).
Residue numbers refer to the chain shown, from its start. Names may count otherwise. Each block holds one binder with its values, some of them ahead of it.

Experiments:
Experiment in all cases: cell-based or functional assay
[1] = biological target: T1, human high affinity trimeric IL-2 receptor (CD25/CD122/CD132) (human, UniProt P01589 22-272; P14784 27-551; P31785 23-369)
T1 sequence 1: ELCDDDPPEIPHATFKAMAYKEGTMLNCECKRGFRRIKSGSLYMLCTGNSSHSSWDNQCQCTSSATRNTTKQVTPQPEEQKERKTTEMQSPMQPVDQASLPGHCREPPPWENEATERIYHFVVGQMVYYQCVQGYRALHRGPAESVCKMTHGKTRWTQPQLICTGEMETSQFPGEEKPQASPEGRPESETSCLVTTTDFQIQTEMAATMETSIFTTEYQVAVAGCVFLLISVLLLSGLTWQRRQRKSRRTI
T1 sequence 2: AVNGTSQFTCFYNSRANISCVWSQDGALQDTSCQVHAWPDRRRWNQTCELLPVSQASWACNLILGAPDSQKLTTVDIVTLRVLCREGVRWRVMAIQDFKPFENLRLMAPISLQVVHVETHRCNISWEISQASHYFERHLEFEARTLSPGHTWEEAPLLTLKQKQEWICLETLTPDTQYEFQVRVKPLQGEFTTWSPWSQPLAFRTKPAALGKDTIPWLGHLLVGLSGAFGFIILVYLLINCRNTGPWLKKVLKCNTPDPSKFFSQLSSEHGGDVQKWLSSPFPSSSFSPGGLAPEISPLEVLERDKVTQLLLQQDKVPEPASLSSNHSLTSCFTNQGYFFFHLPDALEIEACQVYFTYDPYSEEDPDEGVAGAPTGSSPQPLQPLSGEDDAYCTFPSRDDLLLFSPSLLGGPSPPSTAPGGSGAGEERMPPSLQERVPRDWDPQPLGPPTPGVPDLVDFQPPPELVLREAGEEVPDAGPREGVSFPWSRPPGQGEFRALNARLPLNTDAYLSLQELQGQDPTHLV
T1 sequence 3: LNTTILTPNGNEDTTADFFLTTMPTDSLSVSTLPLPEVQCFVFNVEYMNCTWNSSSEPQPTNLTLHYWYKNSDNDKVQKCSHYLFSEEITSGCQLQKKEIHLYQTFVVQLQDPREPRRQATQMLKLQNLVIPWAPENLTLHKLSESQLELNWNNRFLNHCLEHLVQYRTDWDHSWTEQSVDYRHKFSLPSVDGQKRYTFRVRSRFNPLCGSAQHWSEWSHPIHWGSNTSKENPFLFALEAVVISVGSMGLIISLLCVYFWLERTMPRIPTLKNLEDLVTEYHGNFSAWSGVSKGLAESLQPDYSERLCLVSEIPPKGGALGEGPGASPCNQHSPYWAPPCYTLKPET

[2] = biological target: T2, IL-2 receptor of the human CD4 positive T cell clone 3F8 (expresses CD25 and CD122) (human, UniProt P01589 22-272; P14784 27-551)
T2 sequence 1: T1 sequence 1
T2 sequence 2: T1 sequence 2

[3] = biological target: T1, human high affinity trimeric IL-2 …; remark: listed apart in the source

B1: STK-012 (N-terminally 40 kD PEGylated des-Ala1 REK hIL2 mutein, STK-011) (ligand)
chain: PTSSSTKKTQLQLEHLRLDLEMILNGINNYKNPKLTRMLTFKFYMPKKATELKHLQCLEEELKPLEEVLNLAQSKNFHLRPRDLISNINVIVLELKGSETTFMCEYADETATIVEFLNRWITFCKSIISTLT
modifications: N-terminal proline conjugated to a 40 kd (20 kD x 2 arm) branched PEG moiety via a linker
EC50 (read off the curve) [1]: ~8 pM

B4: hIL2 mutein REE (L18R, Q22E, Q126E) (ligand)
chain: APTSSSTKKTQLQLEHLRLDLEMILNGINNYKNPKLTRMLTFKFYMPKKATELKHLQCLEEELKPLEEVLNLAQSKNFHLRPRDLISNINVIVLELKGSETTFMCEYADETATIVEFLNRWITFCESIISTLT
IFNγ Production IC50 (pM), 3F8 cells [2]: 18.4 pM | Proliferation IC50 (pM), 3F8 cells [2]: 33 pM | pSTAT5 ratio YT CD25/YT, dilution factor 2, upper table [3]: 1.4 | pSTAT5 ratio YT CD25/YT, dilution factor 4, upper table [3]: 2.9 | pSTAT5 ratio YT CD25/YT, dilution factor 8, upper table [3]: 5.9 | pSTAT5 ratio YT CD25/YT, dilution factor 16, upper table [3]: 10.1 | pSTAT5 ratio YT CD25/YT, dilution factor 32, upper table [3]: 13.5 | pSTAT5 ratio YT CD25/YT, dilution factor 64, upper table [3]: 15.3 | pSTAT5 ratio YT CD25/YT, dilution factor 128, upper table [3]: 16.8

Results, then the binder that gave them:

IFNγ Production IC50 (pM), 3F8 cells [2]: 17.7 pM | Proliferation IC50 (pM), 3F8 cells [2]: 14.2 pM | pSTAT5 ratio YT CD25/YT, dilution factor 2, upper table [3]: 1.1 | pSTAT5 ratio YT CD25/YT, dilution factor 4, upper table [3]: 1.6 | pSTAT5 ratio YT CD25/YT, dilution factor 8, upper table [3]: 2.6 | pSTAT5 ratio YT CD25/YT, dilution factor 16, upper table [3]: 4.8 | pSTAT5 ratio YT CD25/YT, dilution factor 32, upper table [3]: 7.7 | pSTAT5 ratio YT CD25/YT, dilution factor 64, upper table [3]: 11.8 | pSTAT5 ratio YT CD25/YT, dilution factor 128, upper table [3]: 13.1
B2: hIL2 mutein REK (L18R, Q22E, Q126K) (ligand)
chain: B4 chain with E126K

IFNγ Production IC50 (pM), 3F8 cells [2]: 12.7 pM | Proliferation IC50 (pM), 3F8 cells [2]: 32.6 pM
B3: hIL2 mutein REM (L18R, Q22E, Q126M) (ligand)
chain: B4 chain with E126M

Proliferation IC50 (pM), 3F8 cells [2]: 62.8 pM
B5: hIL2 mutein RTK (L18R, Q22T, Q126K) (ligand)
chain: B4 chain with E22T, E126K
